The source of these data is patent US20030186329A1 (Scripps Research, published 2003).

acyl = not defined here

Assay [1] addresses tissue plasminogen activator (t-PA) (human, UniProt P00750 36-562, limits assumed). Description: cell-based or functional assay.
Assay [2] addresses urokinase-type plasminogen activator (u-PA) (human, UniProt P00749 21-431, limits assumed). Description: cell-based or functional assay.

Sequence of tissue plasminogen activator (t-PA) (P00750 36-562 limits assumed): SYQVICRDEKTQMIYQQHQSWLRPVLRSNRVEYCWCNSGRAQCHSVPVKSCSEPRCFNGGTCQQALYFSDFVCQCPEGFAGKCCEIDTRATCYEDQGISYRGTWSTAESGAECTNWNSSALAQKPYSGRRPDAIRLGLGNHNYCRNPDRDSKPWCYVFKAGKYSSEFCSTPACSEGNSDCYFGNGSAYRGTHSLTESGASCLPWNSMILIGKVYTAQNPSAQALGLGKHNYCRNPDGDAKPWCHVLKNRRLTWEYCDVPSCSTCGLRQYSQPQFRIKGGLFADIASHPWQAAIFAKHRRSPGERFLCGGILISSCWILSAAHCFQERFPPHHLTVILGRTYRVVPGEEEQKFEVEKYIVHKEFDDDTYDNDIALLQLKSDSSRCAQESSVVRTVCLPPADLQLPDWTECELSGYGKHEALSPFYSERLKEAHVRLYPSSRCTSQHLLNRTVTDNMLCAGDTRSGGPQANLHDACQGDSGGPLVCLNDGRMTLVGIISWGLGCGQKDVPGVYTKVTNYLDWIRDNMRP

On to LGGSGRNAQVRLE [peptide LGGSGRNAQVRLE], for which, in assay [1], the “t-PA:u-PA Selectivity” value is 0.011. Moreover, the “u-PA:t-PA Selectivity” value in assay [2] was 89.

Regarding LGGRGRSANAILE [peptide LGGRGRSANAILE], in assay [1], the “t-PA:u-PA Selectivity” value worked out at 5.2. Also, the “u-PA:t-PA Selectivity” value in assay [2] came out at 0.019. In the same order, the values of LGGYGRSANAILE [peptide LGGYGRSANAILE] are 5.7 and 0.018.

Regarding LGGSGRSANAILE [peptide LGGSGRSANAILE], the “t-PA:u-PA Selectivity” value in assay [1] came out at 0.016. In addition, the “u-PA:t-PA Selectivity” value in assay [2] stood at 63.

Regarding LGQRGRSANAILE [peptide LGQRGRSANAILE], the “t-PA:u-PA Selectivity” value in assay [1] is 19. For the same molecule, in assay [2], the “u-PA:t-PA Selectivity” value was found to be 0.005.

B1: peptide SGRS (peptide)
peptide: acyl-SGRS-NH2
modifications: reading uncertain; also: acylated at the amino terminus (acyl group not given here)
Turning to B1, the “t-PA:u-PA Selectivity” value in assay [1] is 0.3. In addition, the “u-PA:t-PA Selectivity” value in assay [2] came to 3.3.

B2: peptide SGKS (peptide)
peptide: acyl-SGKS-NH2
modifications: reading uncertain; also: acylated at the amino terminus (acyl group not given here)
Take B2: in assay [1], the “t-PA:u-PA Selectivity” value stood at 0.04. Besides, the “u-PA:t-PA Selectivity” value in assay [2] is 23.

B3: peptide (V) of Table 1, YGRS (peptide)
peptide: acyl-YGRS-NH2
modifications: reading uncertain; also: acylated at the amino terminus (acyl group not given here)
For the molecule B3, the “t-PA:u-PA Selectivity” value in assay [1] is 17. On the same count and under the same terms, to LGGSGHYGRSGLE [peptide (IV) of Table 1, LGGSGHYGRSGLE] belongs 21; to LGGSGQRGRKALE [peptide (II) of Table 1, LGGSGQRGRKALE], 47.

B4: peptide SGRSA (peptide)
peptide: acyl-SGRSA-NH2
modifications: reading uncertain; also: acylated at the amino terminus (acyl group not given here)
On to B4, for which the “t-PA:u-PA Selectivity” value in assay [1] is 0.05. The “u-PA:t-PA Selectivity” value in assay [2] turned out to be 20.

B5: peptide (VI) of Table 1, RGRK (peptide)
peptide: acyl-RGRK-NH2
modifications: reading uncertain; also: acylated at the amino terminus (acyl group not given here)
Consider B5, for which the “t-PA:u-PA Selectivity” value in assay [1] is 57. As to KKSPGRVVGGSVAH [peptide (I), native cleavage sequence from plasminogen], the “t-PA:u-PA Selectivity” value in assay [1] was 0.33. In addition, the “u-PA:t-PA Selectivity” value in assay [2] turned out to be 3. In the case of LGGSGRKASLSLE [peptide LGGSGRKASLSLE], in assay [1], the “t-PA:u-PA Selectivity” value was found to be 0.032. Further, the “u-PA:t-PA Selectivity” value in assay [2] was 31.

B6: peptide GSGKS (peptide)
peptide: acyl-GSGKS-NH2
modifications: reading uncertain; also: acylated at the amino terminus (acyl group not given here)
In the case of B6, in assay [1], the “t-PA:u-PA Selectivity” value turned out to be 0.008. Further, the “u-PA:t-PA Selectivity” value in assay [2] was 121. Regarding LGGSGRSATRDLE [peptide LGGSGRSATRDLE], in assay [1], the “t-PA:u-PA Selectivity” value is 0.06. In assay [2], the “u-PA:t-PA Selectivity” value was found to be 16.

B7: peptide (VII) of Table 1, FRGRK (peptide)
peptide: acyl-FRGRK-NH2
modifications: reading uncertain; also: acylated at the amino terminus (acyl group not given here)
Consider B7, for which the “t-PA:u-PA Selectivity” value in assay [1] came to 78. Turning to LGGSGERARGALE [peptide (III) of Table 1, LGGSGERARGALE], the “t-PA:u-PA Selectivity” value in assay [1] was determined as 13.
